This note sets out measurements from patent US20120231467A1.

This data set addresses Toxin B, native full-length (270 kDa) (Clostridium difficile) (UniProt P18177). Description: filter. As to conditions: 2NapdU at every N (replaces all dT).
UniProt P18177, sequence (P18177 2-2366): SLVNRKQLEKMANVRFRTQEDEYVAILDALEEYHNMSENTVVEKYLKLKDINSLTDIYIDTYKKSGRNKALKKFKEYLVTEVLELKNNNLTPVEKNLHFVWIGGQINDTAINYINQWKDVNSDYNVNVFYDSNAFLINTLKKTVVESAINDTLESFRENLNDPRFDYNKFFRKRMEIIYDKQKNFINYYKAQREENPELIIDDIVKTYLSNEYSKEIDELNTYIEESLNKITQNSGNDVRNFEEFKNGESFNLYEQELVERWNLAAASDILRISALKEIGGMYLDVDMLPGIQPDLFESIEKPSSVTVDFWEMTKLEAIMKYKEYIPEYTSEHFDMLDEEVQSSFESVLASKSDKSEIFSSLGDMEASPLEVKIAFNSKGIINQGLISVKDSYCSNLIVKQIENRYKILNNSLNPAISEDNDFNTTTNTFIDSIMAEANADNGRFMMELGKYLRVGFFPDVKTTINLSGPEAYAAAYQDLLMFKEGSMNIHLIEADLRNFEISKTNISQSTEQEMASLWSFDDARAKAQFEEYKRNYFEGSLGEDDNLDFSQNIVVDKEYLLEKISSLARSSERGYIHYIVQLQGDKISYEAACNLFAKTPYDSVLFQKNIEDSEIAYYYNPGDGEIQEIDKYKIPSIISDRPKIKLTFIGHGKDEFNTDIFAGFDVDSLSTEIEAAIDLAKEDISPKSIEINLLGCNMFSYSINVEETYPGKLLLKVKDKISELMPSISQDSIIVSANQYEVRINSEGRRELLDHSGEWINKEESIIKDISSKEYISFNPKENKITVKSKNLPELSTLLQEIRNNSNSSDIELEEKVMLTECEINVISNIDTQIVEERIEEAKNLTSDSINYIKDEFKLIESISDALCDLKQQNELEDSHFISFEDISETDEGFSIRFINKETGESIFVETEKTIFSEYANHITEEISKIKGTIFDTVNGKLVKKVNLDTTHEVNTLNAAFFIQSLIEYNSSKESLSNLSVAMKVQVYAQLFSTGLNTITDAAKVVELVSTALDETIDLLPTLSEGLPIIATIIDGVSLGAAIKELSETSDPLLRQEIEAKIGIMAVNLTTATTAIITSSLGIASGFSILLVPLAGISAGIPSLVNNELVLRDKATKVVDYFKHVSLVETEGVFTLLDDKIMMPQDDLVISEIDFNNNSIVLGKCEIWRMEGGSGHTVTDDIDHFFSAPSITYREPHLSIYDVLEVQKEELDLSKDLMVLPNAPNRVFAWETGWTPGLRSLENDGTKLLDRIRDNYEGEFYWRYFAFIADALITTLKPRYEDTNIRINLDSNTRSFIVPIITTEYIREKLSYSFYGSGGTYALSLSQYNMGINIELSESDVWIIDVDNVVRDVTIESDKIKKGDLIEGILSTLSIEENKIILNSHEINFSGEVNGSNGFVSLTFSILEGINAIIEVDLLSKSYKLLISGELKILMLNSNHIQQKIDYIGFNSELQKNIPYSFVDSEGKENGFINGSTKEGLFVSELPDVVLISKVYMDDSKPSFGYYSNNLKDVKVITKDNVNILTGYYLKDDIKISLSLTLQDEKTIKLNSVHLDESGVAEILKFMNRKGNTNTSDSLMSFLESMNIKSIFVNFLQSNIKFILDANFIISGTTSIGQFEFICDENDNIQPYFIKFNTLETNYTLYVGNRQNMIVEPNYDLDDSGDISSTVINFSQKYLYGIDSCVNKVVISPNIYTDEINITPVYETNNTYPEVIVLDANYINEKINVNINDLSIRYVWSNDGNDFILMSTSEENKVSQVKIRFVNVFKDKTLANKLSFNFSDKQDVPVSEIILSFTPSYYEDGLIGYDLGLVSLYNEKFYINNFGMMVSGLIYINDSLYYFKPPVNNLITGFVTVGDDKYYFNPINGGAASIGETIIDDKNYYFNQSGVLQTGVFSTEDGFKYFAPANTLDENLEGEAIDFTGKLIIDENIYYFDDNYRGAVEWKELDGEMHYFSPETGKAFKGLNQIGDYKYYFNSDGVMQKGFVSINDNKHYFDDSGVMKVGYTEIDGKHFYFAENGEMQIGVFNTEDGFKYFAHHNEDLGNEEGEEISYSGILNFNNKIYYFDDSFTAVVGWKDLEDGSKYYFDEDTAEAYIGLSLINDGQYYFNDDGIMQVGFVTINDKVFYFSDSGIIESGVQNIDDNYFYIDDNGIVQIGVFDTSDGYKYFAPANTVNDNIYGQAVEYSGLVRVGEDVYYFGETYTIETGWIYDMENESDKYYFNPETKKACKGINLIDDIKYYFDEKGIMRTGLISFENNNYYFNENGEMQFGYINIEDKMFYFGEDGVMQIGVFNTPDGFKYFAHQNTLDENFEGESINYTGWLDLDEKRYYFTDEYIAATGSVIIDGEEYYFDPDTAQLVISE

The Kd is the concentration at which binding is half-saturated. On to “CNNNNNNACCGCNGCANGACNNNAGCGGCAGNCGNGNGNG [5566-77]”, for which the Kd amounted to 0.23 nM. This counts as sub-nanomolar.
